The values below are quoted from earlier work in PMC9090500.

The series addresses IL18 (Homo sapiens) (UniProt Q14116).

Chain of IL18BP (O95998 31-194): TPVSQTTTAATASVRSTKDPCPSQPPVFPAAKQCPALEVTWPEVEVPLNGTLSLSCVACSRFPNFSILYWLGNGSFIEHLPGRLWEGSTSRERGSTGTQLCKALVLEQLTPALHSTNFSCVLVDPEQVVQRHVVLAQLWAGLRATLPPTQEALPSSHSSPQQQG
Chain of IL18 (Homo sapiens) (Q14116 37-193): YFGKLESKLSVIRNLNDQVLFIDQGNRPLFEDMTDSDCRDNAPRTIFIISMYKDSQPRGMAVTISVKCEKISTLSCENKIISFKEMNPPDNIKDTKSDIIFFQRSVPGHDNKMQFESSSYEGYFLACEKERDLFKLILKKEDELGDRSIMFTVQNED

For IL18BP (from UniProt O95998), the Kd is 400 nM.

For orientation: Kd means the constant that tells how readily two partners part at equilibrium.
